Positions count from the first letter of the chain named.

For assay [1], the target named is T1, HCV Core1-169 (hepatitis C virus (HCV-1), UniProt P26664 1-169).
T1 sequence: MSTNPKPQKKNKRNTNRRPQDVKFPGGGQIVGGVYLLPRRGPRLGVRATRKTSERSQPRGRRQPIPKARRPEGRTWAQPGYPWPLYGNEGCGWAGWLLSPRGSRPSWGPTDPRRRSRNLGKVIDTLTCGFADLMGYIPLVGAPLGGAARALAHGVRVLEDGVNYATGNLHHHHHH
The assay is described as follows: SPR sandwich, capture mAb C11-3.

Assay [2] addresses T1, HCV Core1-169. The assay is described as follows: SPR sandwich, capture mAb C11-7.
Assay [3] concerns the target T1, HCV Core1-169. The experiment in a line: SPR sandwich, capture mAb C11-14.
The target in assay [4] is T2, HCV Core 134-171-TT Peptide (hepatitis C virus (HCV-1 numbering) …).
T2 construct: also called ALRZ-9 peptide
The assay is described as follows: SPR, captured mAb, peptide analyte. For orientation: Surface plasmon resonance follows binding to a sensor surface in real time, without labels.

Assay [5] deals with T1, HCV Core1-169. The assay is described as follows: SPR sandwich, capture mAb C11-9.

B1: HCV 208B-1096 (antibody, V domains shown)
VH: QVQLQQSGAGLAKPGASVKMSCKASGYTFTANKMHWAKQRPGQGLEWIGYIDPSSGYTEYNHKIQYKATLTADTSSSTAYMQLSTLTFEDSAVYYCTNFAYWGQGTLVTVSA
VL: DIVMTQTPLTLSVTIGQPASISCKSSQSLLFTNGKTYLNWFLQRPGQSPKRLIYLLSKLDSGVPDRFSGSGSGTDFTLKISRVEAEDLGVYYCLQSTYFPLTFGAGTKLELKR
One may read the Kd as the concentration at which binding is half-saturated. The low end stands for higher affinity, the high end for lower affinity. For orientation: koff means the first-order rate constant of dissociation. Read a low koff as slow dissociation. Usually kon stands for a measure of how fast the partners come together. The low end stands for slower complex formation, the high end for faster complex formation. Turning to B1, the expected percent binding with HCV Core1-169 [1] came to 15.1%; with HCV Core1-169 [2] it was 16.9%; with HCV Core1-169 [3] it was 16.3%; with HCV Core1-169 [5], 11.4%. The Kd in assay [4] is 0.46 nM. The same molecule returned a koff in assay [4] of 0.0006 s⁻¹. Further, the kon in assay [4] turned out to be 1.3e+06 M⁻¹ s⁻¹.

B2: HCV 208B-395 (antibody, V domains shown)
VH: B1 VH with A37T, E59Q, Y66D, T85S
VL: DIVLTQSPATLSVTPGDRVSLSCRASQRIYNYLHWYQQKSHESPRLLIKYASQSISGIPSRFSGSGSGTDFILTINSVETEDFGMYFCQQSNSWPLTFGAGTKLELRR
Turning to B2, the expected percent binding is 7.6% in the assay with HCV Core1-169 [1], 9.4% with HCV Core1-169 [2], 7.8% with HCV Core1-169 [3] and 5.2% with HCV Core1-169 [5]. The Kd in assay [4] was found to be 0.36 nM. Besides, in assay [4], the koff was determined as 0.00047 s⁻¹. The kon in assay [4] is 1.3e+06 M⁻¹ s⁻¹.

B3: HCV 208B-547 (antibody, V domains shown)
VH: B1 VH with G10E, A31S, H62Q, Q65K, Y66D, T74K, T85S, F88S
VL: EVVLTQSPAITAASLGQKVTITCRASSSVSYMHWYRQKSGTSPQPWIYEISTLASGVPTRFRASGSGTSYSLTISSMEAEDAAIYYCQQWNYPLTFGAGTKLELKR
Take B3: the expected percent binding in the assay with HCV Core1-169 [1] stood at 7.2%; with HCV Core1-169 [2], 8.3%; in the assay with HCV Core1-169 [3] it was 8.2%; in the assay with HCV Core1-169 [5], 4.9%. Also, the Kd in assay [4] stood at 3.2 nM. This molecule also showed an off-rate constant (koff) in assay [4] of 0.0049 s⁻¹. Further, in assay [4], the kon is 1.6e+06 M⁻¹ s⁻¹.

B4: HCV 208B-589 (antibody, V domains shown)
VH: B1 VH with Y66D, T85S
VL: B1 VL
Regarding B4, the expected percent binding in the assay with HCV Core1-169 [1] came out at 9.4%; with HCV Core1-169 [2], 11.7%; with HCV Core1-169 [3], 9.9%; in the assay with HCV Core1-169 [5], 6.7%. In assay [4], the affinity, expressed as Kd, was 0.63 nM. This molecule also came in with a koff in assay [4] of 0.00061 s⁻¹. In assay [4], this molecule gave a kon of 960000 M⁻¹ s⁻¹.

B5: HCV 208A-222 (antibody, V domains shown)
VH: EVQLQQSGPELEKPGASVRISCKTSGYTFTEYAMHWVKQSHGKSLEWIGGINPNNGNAIYNQIFKDKATLTVDRSSSTAYMGLRSLTFGDSGVYFCVRRQLDYFDYWGQGASLTVSS
VL: DIVVTQSPASLAVSLGQRATISCRASQSVSTSRYSYLHWYQQKPGQPPKLLIKYASNLESGVPARFSGSGSGTDFTLNIHPVGEEDTATYYCQHSWEFPFTFGSGTKLEIKR
With B5, the expected percent binding with HCV Core1-169 [1] worked out at 15.6%; with HCV Core1-169 [2] it was 18.8%; in the assay with HCV Core1-169 [3], 15%; with HCV Core1-169 [5], 10.7%. In assay [4], this molecule showed a Kd of 0.31 nM. In assay [4], this molecule returned a koff of 0.00035 s⁻¹. In assay [4], this molecule registered a kon of 1.1e+06 M⁻¹ s⁻¹.

B6: HCV 208A-830 (antibody, V domains shown)
VH: EVRLQQPGPEVEKPGASVKISCKTSGYTFTEYAIHWVKQSHGESLEWIGGINPSNGDPIYNQIFKDKATLTVDRSSNTAYMGLRSLTVGDSGVYFCVRRQLDYFDFWGQGASLTVSS
VL: B5 VL with V4L, A25S, T87P
As to B6, the expected percent binding with HCV Core1-169 [1] was 11.9%; in the assay with HCV Core1-169 [2], 14.7%; with HCV Core1-169 [3] it was 11.7%; in the assay with HCV Core1-169 [5], 7.9%. The molecule further gave a Kd in assay [4] of 0.16 nM. The same molecule registered a koff in assay [4] of 0.00054 s⁻¹. Moreover, in assay [4], the kon is 3.4e+06 M⁻¹ s⁻¹.

B7: HCV 208A-557 (antibody, V domains shown)
VH: QGQMQQSGAELVKPGASVKLSCKTSGFTFSSSYISWLKQKPGQSLEWIAWIYAGTGNTNYNQKFTDKAQLTVDTSSSTAYMQLSSLTTEDSAIYYCAISGTGFTYWGQGTLVTVSA
VL: B5 VL with V3A, V4L, L37M, K49E, E97D
As for B7, the expected percent binding was found to be 17.7% with HCV Core1-169 [1], 21.4% with HCV Core1-169 [2], 17.6% with HCV Core1-169 [3] and 13.3% with HCV Core1-169 [5]. This molecule also displayed a Kd in assay [4] of 0.091 nM. In assay [4], this molecule came in with a koff of 0.00021 s⁻¹. Also, the kon in assay [4] is 2.4e+06 M⁻¹ s⁻¹.

B8: HCV 208A-605 (antibody, V domains shown)
VH: B5 VH with R19K, M34I, K43M, N54S, Y103F
VL: B5 VL
Consider B8, for which the expected percent binding with HCV Core1-169 [1] was determined as 15.9%; with HCV Core1-169 [2], 19.3%; with HCV Core1-169 [3] it was 15.8%; with HCV Core1-169 [5], 11.9%. Also, the affinity in assay [4], expressed as Kd, was 0.43 nM. Moreover, in assay [4], the koff came to 0.00037 s⁻¹. The molecule further gave a kon in assay [4] of 870000 M⁻¹ s⁻¹.

B9: HCV 208B-189 (antibody, V domains shown)
VH: QVHLQQSGAELAKPGASVQMSCKASGYTFTANKMHWARQRPRQGLEWIGYIDPASGYTEYNQKIKDRATLTADKSSSTAYMQLSSLTSEDSAVYYCTNFAYWGQGTLVTVST
VL: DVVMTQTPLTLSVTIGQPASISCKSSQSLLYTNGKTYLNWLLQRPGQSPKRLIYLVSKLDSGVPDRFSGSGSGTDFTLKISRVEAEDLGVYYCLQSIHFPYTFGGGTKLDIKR
On to B9, for which the expected percent binding with HCV Core1-169 [1] was 2.3%; with HCV Core1-169 [2] it was 2.9%; in the assay with HCV Core1-169 [3] it was 2.7%; in the assay with HCV Core1-169 [5] it was not above 1%. Further, the Kd in assay [4] was determined as 0.17 nM. The koff in assay [4] worked out at 0.00015 s⁻¹. Moreover, the kon in assay [4] was 880000 M⁻¹ s⁻¹.

B10: HCV 208A-638 (antibody, V domains shown)
VH: QGQLQQPGAEFVKPGASLKLSCRASGYTFTSYWIHWVKQRPGQGLEWIGEVDPSDSYINQNEKFRGKATLTVDKSSSTAYMQLGSLTSEDSAVYYCARHYYGVLDSWGQGTALTVSS
VL: QIVLTQSPTIMSASLGERVTMTCTASSSVSSSYLHWFQQKPGSSPKLWIYSTSNLASGVPPRFSGSGSGTSYSLSISSVEAEDVATYYCLQFHRSPWTFGGGAKLEIKR
For B10, the expected percent binding with HCV Core1-169 [1] stood at 14.1%; with HCV Core1-169 [2], 16.9%; with HCV Core1-169 [3], 13.3%; with HCV Core1-169 [5], 9.2%. In assay [4], the affinity, expressed as Kd, was 0.2 nM. In addition, the koff in assay [4] turned out to be 0.00053 s⁻¹. For the same molecule, the kon in assay [4] came to 2.7e+06 M⁻¹ s⁻¹.

B11: HCV 208A-352 (antibody, V domains shown)
VH: B7 VH with Y33F, L83F
VL: DVLMAQTPLSLPVTLGDQASISCRSSQSLVHSNGNTYLEWFLQKPGQSPKLLIYNVSNRFSGVPDRFSGSGSGTDFTLKISRVEAEDLGVYYCFQGSHVPLTFGSGTKLEIKR
For B11, the expected percent binding with HCV Core1-169 [1], with HCV Core1-169 [2], with HCV Core1-169 [3] and in the assay with HCV Core1-169 [5] was not above 1% each time. This molecule also returned a Kd in assay [4] of 0.52 nM. Moreover, the koff in assay [4] is 5.4e-05 s⁻¹. In assay [4], this molecule displayed a kon of 100000 M⁻¹ s⁻¹.

B12: HCV 208B-1024 (antibody, V domains shown)
VH: EVQLVESGGDLVKPGGSLKLSCAASGFTFSNYGMSWVRQTPDKRLEWVATISSGGSYSYYPDSVKGRFTISRDNAKNILYLQMSSLKSEDTAMYYCASLYYGYGDYWGQGTAFTVSS
VL: B11 VL with A5T, T14S, L29I, F41Y, P45L, N55R, L101W, S105G
B12: the expected percent binding with HCV Core1-169 [1] amounted to 10.9%; with HCV Core1-169 [2], 14.3%; with HCV Core1-169 [3] it was 12.2%; in the assay with HCV Core1-169 [5] it was 7.1%. The affinity in assay [4], expressed as Kd, was 15 nM. Further, the koff in assay [4] amounted to 0.014 s⁻¹. Moreover, the kon in assay [4] came out at 1e+06 M⁻¹ s⁻¹.

B13: HCV 208B-281 (antibody, V domains shown)
VH: B7 VH with M4L, K40R, N57G, L83F, T104I
VL: B11 VL with A5T, T14S, S32N, N55K, L101F
Consider B13, for which the expected percent binding in the assay with HCV Core1-169 [1], in the assay with HCV Core1-169 [2], in the assay with HCV Core1-169 [3] and with HCV Core1-169 [5] was not above 1% throughout. The Kd in assay [4] came to 96 nM. In assay [4], the koff is 0.00025 s⁻¹. In addition, the kon in assay [4] is 2200 M⁻¹ s⁻¹.

B14: HCV 208A-877 (antibody, V domains shown)
VH: QLQQSGPELVKPGASVKISCKTSGYTFTENAMHWVKQSRGKSLEWIGGVNPNNGDTVYTQKFKGKATLTVAKSSSTAYMELRTMTCEESTVYYCASREPDFFDYWGQGSSVTVSS
VL: QIVLTQSPAIMSVSPGEKVSMTCSASSSVTYMHWYQQKSGTSPKRWIYDTSELASGVPARFSGSGSGTTYSLTISSMEAEDAATYYCQQWSNKPLTFGAGTKLELKR
On to B14, for which the expected percent binding was 9.4% in the assay with HCV Core1-169 [1], 12.1% with HCV Core1-169 [2], 10.7% with HCV Core1-169 [3] and 5.9% with HCV Core1-169 [5]. In addition, binding in assay [4] was put at a Kd of 2.2 nM. Moreover, in assay [4], the koff was determined as 0.0024 s⁻¹. For the same molecule, the kon in assay [4] was determined as 1.1e+06 M⁻¹ s⁻¹.
